# Article PMC6232973
# Target: CC1-CC2-SUN fragment of mouse SUN2 (SUN2 residues 410-731), wild type (mouse)
# Test: SEC
substance,measurement,value
"CC1-CC2-SUN fragment of mouse SUN2 (SUN2 residues 410-731), wild type (domain or fragment)",stoichiometry N,3
